Reference: US20220127341A1 (HUDSON INSTITUTE OF MEDICAL RESEARCH, published 2022)

Assays:
[1] = target: T1, mouse KRT14 (Keratin, type I cytoskeletal 14) as expressed by murine ID8 ovarian cancer cells (Mus musculus (Mouse), UniProt Q61781 1-484); test: flow cytometry of cardiac blood stained with anti-CD45 and mAb AN-17
T1 construct: whole, on cells; also called non-human protein
T1 sequence (looked up): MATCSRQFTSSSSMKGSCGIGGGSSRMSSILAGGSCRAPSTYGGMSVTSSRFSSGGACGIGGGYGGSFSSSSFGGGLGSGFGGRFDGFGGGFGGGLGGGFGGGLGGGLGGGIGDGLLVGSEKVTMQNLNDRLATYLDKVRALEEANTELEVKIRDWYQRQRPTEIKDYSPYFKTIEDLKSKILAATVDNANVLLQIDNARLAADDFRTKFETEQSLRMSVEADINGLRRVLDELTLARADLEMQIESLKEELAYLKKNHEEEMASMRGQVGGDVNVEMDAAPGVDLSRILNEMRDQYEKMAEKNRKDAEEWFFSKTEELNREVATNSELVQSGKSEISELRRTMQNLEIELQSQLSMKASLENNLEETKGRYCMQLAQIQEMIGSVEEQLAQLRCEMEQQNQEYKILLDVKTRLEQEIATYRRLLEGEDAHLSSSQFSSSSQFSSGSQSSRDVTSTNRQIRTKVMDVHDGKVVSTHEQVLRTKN
Procedure: Cardiac blood was taken from mice bearing 12-week old ID8 iRFP720+ epithelial ovarian tumours and stained using anti-CD45 and mAb AN-17. Circulating ID8 tumour cells were identified as KRT14+CD45− cells and confirmed by iRFP720+ status. iRFP720+ID8 cells spiked into blood was used as a positive control.
(§1) Flow cytometry was carried out according to standard protocols (PMID: 30602661), with data acquired using a BD LSRFortessa X-20 (BD Biosciences) and analysed using FlowJo software v10.5.0 (BD Biosciences). Samples assessed for KRT14+ cell populations included OVCAR3, CAOV4, ID8 mouse ovarian cancer cells, ascites-derived ovarian cancer cells derived from a clinical specimen (designated #3.1937-07) and cardiac blood from a mice bearing 12-week old epithelial ovarian tumours. For cell lines, 1×10⁶ cells per cell line were incubated with either mAb AN-17 (1:200 dilution) or a commercially available anti-KRT14 polyclonal antibody (Sigma SAB4501657; 1:50 dilution) as a positive control for 45 mins in non-immune serum at room temperature. The secondary antibodies, goat anti-mouse Alexa647 (mAb AN-17) or goat anti-rabbit IgG Alexa 488 (commercial Ab), were diluted 1:500 and incubated for 30 minutes. For blood samples. 2×10⁶ cells were incubated with an Alexa Fluor® 488-conjugated mAb AN-17 antibody for 45 minutes. […]

[2] = target: T2, human KRT14 (Keratin, type I cytoskeletal 14) as expressed by human cancer cells and tumour tissue (Homo sapiens (Human), UniProt P02533 1-472); test: flow cytometry
T2 construct: whole, on cells; Probed on intact cells (surface-exposed N-terminal portion), on permeabilized cells and in FFPE tissue sections; also called K14; Keratin-14
T2 sequence (looked up): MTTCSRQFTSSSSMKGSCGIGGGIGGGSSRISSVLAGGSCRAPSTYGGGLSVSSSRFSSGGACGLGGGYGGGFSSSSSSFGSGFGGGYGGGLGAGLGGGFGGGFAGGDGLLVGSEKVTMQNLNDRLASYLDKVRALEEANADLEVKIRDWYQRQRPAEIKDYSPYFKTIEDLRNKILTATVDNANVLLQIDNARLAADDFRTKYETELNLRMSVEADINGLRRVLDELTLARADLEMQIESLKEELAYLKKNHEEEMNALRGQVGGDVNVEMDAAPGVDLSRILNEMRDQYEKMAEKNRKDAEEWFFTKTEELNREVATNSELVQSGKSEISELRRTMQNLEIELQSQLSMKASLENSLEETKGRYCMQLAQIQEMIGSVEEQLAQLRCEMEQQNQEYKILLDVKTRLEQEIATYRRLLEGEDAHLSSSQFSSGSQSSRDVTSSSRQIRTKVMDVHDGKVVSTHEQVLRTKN
Procedure: OVCAR3, CAOV4, ID8 and the patient-derived 3.1937-07 cell lines were analysed on a BD LSRFortessa X-20 (BD Biosciences) flow cytometer for KRT14+ cell populations, using mAb AN-17 or a commercially available polyclonal antibody to KRT14 (Sigma SAB4501657).
as §1

B1: monoclonal anti-KRT14 antibody AN-17 (antibody, V domains shown)
VH: QVQLKESGPGLVAPSQSLSITCTVSGFSLSRYSVHWVRQPPGKGLEWLGMIWGGGSTDYNSALKSRLSISKDNSKSQVFLKMNSLQTDDTAMYYCARKDYGYSYFDYWGQGTTLTVSS
VL: DVLMTQTPLSLPVSLGDQASISCRSSQSIVHSNGNTYLEWYLQKPGQSPKLLIYKVSNRFSGVPDRFSGSGSGTDFTLKISRVEAEDLGVYYCFQGSHVPFTFGSGTKLEIKR
notes: the isotype-matched control used is mouse IgG1 kappa; Some assays used it conjugated to Alexa Fluor 488 or Alexa-647; also called mAb AN-17; mAb AN17
binding result [1]: binds
binding result [2]: binds
